Tested on: Escherichia coli TOP10
Experiment: shrunken log2 fold change of peptide-encoding DNA abundance (4.5 h post-induction vs induction); higher = less antimicrobial activity (less host growth inhibition)
Details: time post-induction: 4.5 h; library: site-saturation at positions 5, 18, 19, 20
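Note: peptides expressed intracellularly from a pBAD plasmid library in pooled LB shake-flask culture, induced with 0.3% L-arabinose, DNA abundance read by NGS, three biological replicates, DESeq2 with apeglm shrinkage.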

Sequence: RRIRMRPPRLPRPRPRPNEGPRP
- shrunken log2 fold change: 0.137

Sequence: RRIRMRPPRLPRPRPRPLQNPRP
- shrunken log2 fold change: 1.2

Sequence: RRIRSRPPRLPRPRPRPTCEPRP
- shrunken log2 fold change: 0.228

Sequence: RRIRMRPPRLPRPRPRPYKDPRP
- shrunken log2 fold change: -0.947

Sequence: RRIRQRPPRLPRPRPRPTLHPRP
- shrunken log2 fold change: 0.0326

Sequence: RRIRERPPRLPRPRPRPVEHPRP
- shrunken log2 fold change: -0.0102

Sequence: RRIRERPPRLPRPRPRPGKLPRP
- shrunken log2 fold change: 0.162

Sequence: RRIRMRPPRLPRPRPRPEQCPRP
- shrunken log2 fold change: -0.00138

Sequence: RRIRVRPPRLPRPRPRPTPSPRP
- shrunken log2 fold change: 0.253

Sequence: RRIRVRPPRLPRPRPRPGNEPRP
- shrunken log2 fold change: -0.203

Sequence: RRIRQRPPRLPRPRPRPNQQPRP
- shrunken log2 fold change: -0.0802

Sequence: RRIRHRPPRLPRPRPRPQDSPRP
- shrunken log2 fold change: -0.00865

Sequence: RRIRGRPPRLPRPRPRPYTLPRP
- shrunken log2 fold change: -0.616

Sequence: RRIRFRPPRLPRPRPRPNYHPRP
- shrunken log2 fold change: -0.758

Sequence: RRIRMRPPRLPRPRPRPQNHPRP
- shrunken log2 fold change: -0.337

Sequence: RRIRLRPPRLPRPRPRPWLTPRP
- shrunken log2 fold change: -0.18

Sequence: RRIRRRPPRLPRPRPRPKSKPRP
- shrunken log2 fold change: 0.165

Sequence: RRIRYRPPRLPRPRPRPAYAPRP
- shrunken log2 fold change: -0.236

Sequence: RRIRLRPPRLPRPRPRPINWPRP
- shrunken log2 fold change: -0.434

Sequence: RRIRRRPPRLPRPRPRPVFSPRP
- shrunken log2 fold change: -0.0171

Sequence: RRIRRRPPRLPRPRPRPLIHPRP
- shrunken log2 fold change: 0.125

Sequence: RRIRMRPPRLPRPRPRPDSCPRP
- shrunken log2 fold change: -0.00101

Sequence: RRIRSRPPRLPRPRPRPKEKPRP
- shrunken log2 fold change: -0.00788

Sequence: RRIRDRPPRLPRPRPRPMLSPRP
- shrunken log2 fold change: 4.44e-05

Sequence: RRIRGRPPRLPRPRPRPWMLPRP
- shrunken log2 fold change: 0.0888

Sequence: RRIRYRPPRLPRPRPRPLFEPRP
- shrunken log2 fold change: -0.414

Sequence: RRIRFRPPRLPRPRPRPEYQPRP
- shrunken log2 fold change: -0.0212

Sequence: RRIRLRPPRLPRPRPRPVRHPRP
- shrunken log2 fold change: 0.19

Sequence: RRIRWRPPRLPRPRPRPSWFPRP
- shrunken log2 fold change: -0.0343

Sequence: RRIRHRPPRLPRPRPRPNGLPRP
- shrunken log2 fold change: -0.57

Sequence: RRIRCRPPRLPRPRPRPHVMPRP
- shrunken log2 fold change: -0.743

Sequence: RRIRHRPPRLPRPRPRPAYRPRP
- shrunken log2 fold change: -0.00502

Sequence: RRIRARPPRLPRPRPRPVTQPRP
- shrunken log2 fold change: 0.0996

Sequence: RRIRTRPPRLPRPRPRPFPEPRP
- shrunken log2 fold change: -0.41

Sequence: RRIRARPPRLPRPRPRPDMTPRP
- shrunken log2 fold change: 0.723

Sequence: RRIRQRPPRLPRPRPRPLAMPRP
- shrunken log2 fold change: 0.294

Sequence: RRIRMRPPRLPRPRPRPFVIPRP
- shrunken log2 fold change: -0.197

Sequence: RRIRYRPPRLPRPRPRPIQFPRP
- shrunken log2 fold change: -0.00822

Sequence: RRIRERPPRLPRPRPRPPKKPRP
- shrunken log2 fold change: 0.0812

Sequence: RRIRVRPPRLPRPRPRPCTFPRP
- shrunken log2 fold change: -0.0858

Sequence: RRIRDRPPRLPRPRPRPLFTPRP
- shrunken log2 fold change: 0.0222

Sequence: RRIRNRPPRLPRPRPRPMYQPRP
- shrunken log2 fold change: -0.201

Sequence: RRIRNRPPRLPRPRPRPRRQPRP
- shrunken log2 fold change: 0.227

Sequence: RRIRQRPPRLPRPRPRPMTQPRP
- shrunken log2 fold change: -0.0451

Sequence: RRIRMRPPRLPRPRPRPYWDPRP
- shrunken log2 fold change: -0.0427

Sequence: RRIRVRPPRLPRPRPRPFQMPRP
- shrunken log2 fold change: -0.333

Sequence: RRIRVRPPRLPRPRPRPPCYPRP
- shrunken log2 fold change: -0.356

Sequence: RRIRYRPPRLPRPRPRPINKPRP
- shrunken log2 fold change: -1.43

Sequence: RRIRQRPPRLPRPRPRPQFAPRP
- shrunken log2 fold change: -0.00983

Sequence: RRIRWRPPRLPRPRPRPDHYPRP
- shrunken log2 fold change: -0.023

Sequence: RRIRYRPPRLPRPRPRPLDMPRP
- shrunken log2 fold change: -0.151

Sequence: RRIRLRPPRLPRPRPRPHGTPRP
- shrunken log2 fold change: 0.0824

Sequence: RRIRIRPPRLPRPRPRPCDRPRP
- shrunken log2 fold change: -0.563

Sequence: RRIRSRPPRLPRPRPRPKRFPRP
- shrunken log2 fold change: 0.0952

Sequence: RRIRARPPRLPRPRPRPVIKPRP
- shrunken log2 fold change: -0.136

Sequence: RRIRPRPPRLPRPRPRPLTWPRP
- shrunken log2 fold change: 0.0214

Sequence: RRIRHRPPRLPRPRPRPCEPPRP
- shrunken log2 fold change: 0.195

Sequence: RRIRTRPPRLPRPRPRPPARPRP
- shrunken log2 fold change: 0.546

Sequence: RRIRLRPPRLPRPRPRPWHLPRP
- shrunken log2 fold change: -0.28

Sequence: RRIRWRPPRLPRPRPRPTRMPRP
- shrunken log2 fold change: 0.381

Sequence: RRIRWRPPRLPRPRPRPGADPRP
- shrunken log2 fold change: 0.839

Sequence: RRIRNRPPRLPRPRPRPPNPPRP
- shrunken log2 fold change: 0.411

Sequence: RRIRWRPPRLPRPRPRPDTRPRP
- shrunken log2 fold change: -0.0523

Sequence: RRIRPRPPRLPRPRPRPQISPRP
- shrunken log2 fold change: -0.221

Sequence: RRIRHRPPRLPRPRPRPPASPRP
- shrunken log2 fold change: 1.36

Sequence: RRIRRRPPRLPRPRPRPMLPPRP
- shrunken log2 fold change: -0.000603

Sequence: RRIRIRPPRLPRPRPRPSMKPRP
- shrunken log2 fold change: -0.56

Sequence: RRIRARPPRLPRPRPRPHNNPRP
- shrunken log2 fold change: -0.363

Sequence: RRIRVRPPRLPRPRPRPDSIPRP
- shrunken log2 fold change: -0.149

Sequence: RRIRSRPPRLPRPRPRPEDMPRP
- shrunken log2 fold change: -0.088

Sequence: RRIRLRPPRLPRPRPRPWMMPRP
- shrunken log2 fold change: 0.00744

Sequence: RRIRSRPPRLPRPRPRPMDRPRP
- shrunken log2 fold change: -0.155

Sequence: RRIRARPPRLPRPRPRPQKIPRP
- shrunken log2 fold change: -0.108

Sequence: RRIRFRPPRLPRPRPRPKESPRP
- shrunken log2 fold change: -0.0731

Sequence: RRIRKRPPRLPRPRPRPEGQPRP
- shrunken log2 fold change: 0.107

Sequence: RRIRVRPPRLPRPRPRPSYWPRP
- shrunken log2 fold change: -0.341

Sequence: RRIRTRPPRLPRPRPRPHQAPRP
- shrunken log2 fold change: -0.00677

Sequence: RRIRDRPPRLPRPRPRPPETPRP
- shrunken log2 fold change: 0.743

Sequence: RRIRHRPPRLPRPRPRPMARPRP
- shrunken log2 fold change: 0.0467

Sequence: RRIRVRPPRLPRPRPRPPHPPRP
- shrunken log2 fold change: 0.261

Sequence: RRIRRRPPRLPRPRPRPTNKPRP
- shrunken log2 fold change: 0.149

Sequence: RRIRVRPPRLPRPRPRPSQRPRP
- shrunken log2 fold change: -0.0119

Sequence: RRIRNRPPRLPRPRPRPWKIPRP
- shrunken log2 fold change: 0.089

Sequence: RRIRIRPPRLPRPRPRPWNLPRP
- shrunken log2 fold change: 0.0133

Sequence: RRIRSRPPRLPRPRPRPFRQPRP
- shrunken log2 fold change: 3.58

Sequence: RRIRGRPPRLPRPRPRPTMIPRP
- shrunken log2 fold change: 0.0786

Sequence: RRIRARPPRLPRPRPRPCQRPRP
- shrunken log2 fold change: 0.246

Sequence: RRIRYRPPRLPRPRPRPQTNPRP
- shrunken log2 fold change: -0.711

Sequence: RRIRGRPPRLPRPRPRPLIHPRP
- shrunken log2 fold change: 0.324

Sequence: RRIRERPPRLPRPRPRPKWTPRP
- shrunken log2 fold change: 0.0657

Sequence: RRIRNRPPRLPRPRPRPLRKPRP
- shrunken log2 fold change: -0.099

Sequence: RRIRDRPPRLPRPRPRPWTQPRP
- shrunken log2 fold change: -0.124

Sequence: RRIRHRPPRLPRPRPRPFHIPRP
- shrunken log2 fold change: -0.0345

Sequence: RRIRYRPPRLPRPRPRPICKPRP
- shrunken log2 fold change: -0.193

Sequence: RRIRGRPPRLPRPRPRPVVQPRP
- shrunken log2 fold change: 0.94

Sequence: RRIRWRPPRLPRPRPRPMDGPRP
- shrunken log2 fold change: 0.309

Sequence: RRIRFRPPRLPRPRPRPPGNPRP
- shrunken log2 fold change: 0.0667

Sequence: RRIRSRPPRLPRPRPRPCHDPRP
- shrunken log2 fold change: -0.105

Sequence: RRIRYRPPRLPRPRPRPINHPRP
- shrunken log2 fold change: -0.675

Sequence: RRIRQRPPRLPRPRPRPVQLPRP
- shrunken log2 fold change: 0.163

Sequence: RRIRIRPPRLPRPRPRPFTKPRP
- shrunken log2 fold change: -0.173

Sequence: RRIRHRPPRLPRPRPRPAPMPRP
- shrunken log2 fold change: 0.164

Sequence: RRIRWRPPRLPRPRPRPKTMPRP
- shrunken log2 fold change: 0.35

Sequence: RRIRRRPPRLPRPRPRPYQTPRP
- shrunken log2 fold change: -0.071

Sequence: RRIRMRPPRLPRPRPRPPYGPRP
- shrunken log2 fold change: 0.294

Sequence: RRIRCRPPRLPRPRPRPWNVPRP
- shrunken log2 fold change: -0.476

Sequence: RRIRGRPPRLPRPRPRPDRFPRP
- shrunken log2 fold change: 0.375

Sequence: RRIRARPPRLPRPRPRPYWHPRP
- shrunken log2 fold change: -0.241

Sequence: RRIRARPPRLPRPRPRPDKCPRP
- shrunken log2 fold change: -0.0816

Source: the supplement of paper PMC9112550, “Optimization of the antimicrobial peptide Bac7 by deep mutational scanning” (BMC Biology, 2022)
